Test results taken from patent US20230226096A1 (Orna Therapeutics, Inc., priority 2020, published 2023).

B1: PSIV (2x mut for Xba1) (nucleic acid)
DNA: GCAAAATGGGTACGTAGTTAACCACTGCGTATCAGGATTGCAGGCCACGAAGGGTATTTGCATATCTTTCTATGCGGTATTACGGCTTAAAACCCGTTGTATCTTGTTGTTTGACTGCCTGTATCACTAGTGGCCATTTTATTTAGGTTAGAGACCCCTGATAGTAGGAGAGTTACAAACTCTTTAAAAATTGTTGACCCCGGAAAAGATGGTGACCCCTGTAAGTAGTTGATCAAGAAGATCTATGCGCTGGCATAGTAATCCAGTGTTTCCTGTTTTAGGATGACCTCTGAAAGTAGATGACCGTGGAAAGTCACGTAGTGCCCCAATAAGCACGTTTGGGCAGCGTGCGCTATCACAAGGCTTGATCTCCGAGGAGCCCCTTGTTTTAGCTGGCTGGAAGCCAATGATCTTAAGTAGATAAGTGCTGTTGCTTGTAGTTCAACAGAAAGCTTTGAGTACGTCTTTCTTGCGAGAAAGAACACATGCATTCTTATGCTCTCAATTCTATTATTTTTATTTTGGGCGAAAGGAAAGCTCTCACGCGAGTACGAATAGCCAACCCTTTAT
B2: EV F1 BEV 261 (nucleic acid, listed as Enterovirus sp.)
DNA: GCAATGCTGCACCAGTGCACTGGTACGCTAGTACCTTTTCACGGAGTAGATGGTATCCCTTACCCCGGAACCTAGAAGATTGCACACAAACCGACCAATAGGCGCACCGCATCCAGCCGTGCAGCGGTCAAGCACTTCTGTCTCCCCGGTCTGTAAAGATCGTTATCCGCCCGACCCACTACGAAAAGCCTAGTAACTGGCCAAGTGAACGCGAAGTTGCGCTCCGCCACAACCCCAGTGGTAGCTCTGGAAGATGGGGCTCGCACCACCCCCGTGGTAACACGGTTGCCTGCCCGCGTGTGCTTCCGGGTTCGGTCTCGTGCCGTTCACTTCAACTTCACGCAACCAGCCAAGAGCCTATTGTGCTGGGACGGTTTTCCTCCGGGGCCGTGAATGCTGCTAATCCCAACCTCCGAGCGTGTGCGCACAATCCAGTGTTGCTACGTCGTAACGCGTAAGTTGGAGGCGGAACAGACTACTTTCGGTACCCCGTGTTTCCTCTCATTTTATTTAATATTTTATGGTGACAATTGTTGAGATTTGCGCTCTTGCAACGTTGCCATTGAATATTGGCTTATACTATTTGGTTGCCTTTTACAAAACCTCTGATATACCCAGTTCTTACATTGATCTGCTTGTTTTTCTCAATTTGAAGTATAGACTACAAATAGCAAA
B3: EV J 1631 (nucleic acid, listed as Enterovirus sp.)
DNA: CACCCTGAGGGCCCACGTGGCGTAGTACTCTGGTATCAAGGTACCTTTGTACGCCTATTTTATTTCCCTTCCCCCACAGTAACTTAGAAGCTTATCTCATAGTTCAACAGTAGGGTCACTAACCAAGTGGCTCAGCGAACAAGCACTTCTGTTTCCCCGGTCCTAGTACCTGTGAAGCTGTACCCACGGCGGAAGGGGAAAAAGATCGTTATCCGGCCCCCTACTTCGGAAAGCCTAGTAACACCATTGAAGCAATCGAGTGTTGCGCTCAGCACAGTAACCCCTGTGTAGCTTTGGTTGATGAGTCTGGGCACTCCCCACTGGCGACAGCGGCCCAGGCTGCGTTGGCGGCCAACCGACTCGGGCAACCGGGTCGGACGCTCGTTTGTGGACATGGTGTGAAGAGCCTACTGAGCTAGAGGGTAGTCCTCCGGCCCCTGAATGCGGATAATCCTAACCCCGGAGCACCCACACTCAATCCAGAGTGCAGGATGTCGTAACGCGTAAGTCTGGGACGGAACCGACTACTTTGGGTGTCCGTGTTTCCTGTTTTACTTACTTTGGCTGCTTATGGTGACAATCTAGTGTTGTTACCATATAGCTATTGGATTGGCCATCCGGTGTTTTGAATTGTGTGTTTATACTAATTCTTTTACATATCACAGACAACCAAAT
B4: EV D94 (nucleic acid, listed as Enterovirus sp.)
DNA: CGTGGCGGCCAGTACTCTGGTATCACGGTACCTTTGTACGCCTGTTTTATATCCCCTTCCCCCGCAACTTAGAAGAAAACAAATCAAGTTCACTAGGAGGGGGTACAAACCAGTACCACCACGAACAAGCACTTCTGTTTCCCCGGTGATGTCGTATAGACTGTAACCACGGTTGAAAACGATTGATCCGTTATCCGCTCTTGTACTTCGAAAAGCCCAGTATCACCTTGGAATCTTCGATGCGTTGCGCTCAGCACTCAACCCCAGAGTGTAGCTTAGGTCGATGAGTCTGGACACTCCTCACCGGCGACGGTGGTCCAGGCTGCGTTGGCGGCCTACCTGTGGTCCAAAGCCACAGGACGCTAGTTGTGAACAAGGTGTGAAGAGCCTATTGAGCTACAAGAGAATCCTCCGGCCCCTGAATGCGGCTAATCCTAACCACGGAGCAAGGGTACACAAACCAGTGTATATCTTGTCGTAACGCGCAAGTCTGTGGCGGAACCGACTACTTTGGGTGTCCGTGTTTCCTTTTGTTTTTATCATGGCTGCTTATGGTGACAATCTAAGATTGTTATCATATAGCTGTTGGATTGGCCATCCGGTAATTTATTGAGATTTGAGCATTTGCTTGTTTCTTCAACAATTTCACCTATTCATTGCATTTCAGCAGTCAAA
B5: EV I (nucleic acid)
DNA: TTAGTACTTTCTCACGGGGATAGTGGTATCCCTCCCTAGTAATTTAGAAGACTTGAAAAACCGACCAATAGGCACCTCGCATCCAGCGGGGTAAAGGTCAAGCACTTCTGTTTCCCCGGGTCGAGTAGCGATAGACTGTGCCCACGGTCGAAGGTGAAACAACCCGTTATCCGACTTTGTACTTCGGGAAGCCTAGTACCACCAAAGATTATGCTTGGGGTTTCGCTCAGCACGACCCTGGTGTAGATCAGGCCGATGGATCACCGCATTCCTCACAGGCGACTGTGGCGGTGGTCGCGTGGCAGCCTGCCGATGGGGCAACCCATCGGACGCCAAGCATATGACAGGGTGTGAAGAGCCTACTGAGCTACAAAGTATTCCTCCGGCCCCTGAATGCGGCTAATCCCAACCACGGAGCATTTGCTACCAAACCAGGTAGTGGAATGTCGTAACGGGTAACTCTGTGGCGGAACCGACTACTTTGGGTGTCCGTGTTTCCTTTTAATTTATCATTCTGTATATGGTGACAACTATAGTGCTATCTCGATTTGCATTACTATTGTTGAGATTAAAACTTTATTACATTGTTGCATTTTACCCTTTGAGTGAGTTTTCACCTGAACAGATTAATTTACTCATCCTGTTTATATATTACAAGCAGAAATACTTGCAAAG
modifications: Enterovirus I
B6: EV J N125 (nucleic acid, listed as Enterovirus sp.)
DNA: CGGTACCTTTGTACGCCTATTTTACCCCCTTCCCCTTGTAACTTAGAAGCAAAGCAAACCAGTTCAATAGTAAGCAACACAACCCAGTGTTGTGACGAACAAGTACTTCTGTTTCCCCGGGAGGGTCTGACGGTAAGCTGTACCCACGGCTGAAGTATGACCTACCGTTAACCGGCTACCTACTTCGAGAAGTCTAGTAATACCATTGAAGTTTTGTTGGCGTTACGCTCAACACACTACCCCGTGTGTAGTTTTGGCTGATGAGTCACGGCATTCCCCACGGGCGACCGTGGCCGTGGCTGCGTTGCGGCCAACCAAGGGGCGCAAGCTCCTTGGACGTCACTTAACAGACATGGTGTGAAGAACCTATTGAGCTAGGTAGTAGTCCTCCGGCCCCTGAATGCGGCTAATCCTAACTCCGGAGCACATCAGTGCAACCCAGCATTTGGTGTGTTGTAATACGCAAGTCTGGAGCGGAACCGACTACTTTGGGTGTCCGTGTTTCCTGTTTTACCTTATTTGGCTGCTTATGGTGACAATTTGATATTGTTACCATATAGCTGTTGGATTGGCCATCCGGATTTTTGAAAGAGACCCAAAACTTTCTTCTCTACTTCAGATTCAAGTGCGAAGTTTTCCTTTTCATATATTACTTACTAATTTGAAGTACCAAAG

test system: HEK293 cells; assay type: cell-based, human; settings: luminescence from secreted Gluc in supernatant 24 hours after transfection of HEK293 cells; circular RNA encoding Gluc with the named IRES (UTR truncated to 675 nt)

Compared with B1, B2 is higher in Expression: 9.70E+04 for the first, 1.12E+07 for the second.

First: B3
Second: B4
The Expression of the first is higher: 9.88E+07 for the first, 9.25E+07 for the second.

First: B5
Second: B6
The Expression of the first is higher: 1.31E+08 for the first, 2.90E+07 for the second.
